According to paper PMC4240585, “Solution Structure of the SGTA Dimerisation Domain and Investigation of Its Interactions with the Ubiquitin-Like Domains of BAG6 and UBL4A” (PLoS ONE, 2014):

Tests used:
[1] = target: T1, UBL domain of UBL4A (UBL4A_UBL), residues 1-74 (human, UniProt P11441 1-74, RED-NHS (amine reactive) dye, in the MST experiment only); assay: MST; labelled UBL at 0.4 µM, unlabelled SGTA_NT 400 µM to 24.4 nM; 100 mM MES pH 6.0, 150 mM KCl, 0.5 mM TCEP; 25 °C; Monolith NT.115; settings: both partners purified
T1 sequence (looked up): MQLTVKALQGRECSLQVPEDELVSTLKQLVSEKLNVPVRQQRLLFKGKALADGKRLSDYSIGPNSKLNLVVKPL

[2] = target: T1, UBL domain of UBL4A (UBL4A_UBL), …; assay: ITC; 30 °C, 100 mM MES pH 6.0, 200 mM KCl; 20 injections of 2 µL SGTA_NT (dimer, 500 µM) into UBL at 50 µM (monomer); independent binding sites model; settings: both partners purified
[3] = target: the molecule itself; assay: NMR solution structure; SGTA_NT dimer; mixed isotope labelling, filtered NOESY for intermolecular NOEs; 100 mM MES pH 6.0, 150 mM KCl, 35 °C; ARIA2.1

B1: SGTA N-terminal dimerisation domain (SGTA_NT), residues 1-69 (domain or fragment, UniProt O43765 1-69, looked up)
chain: MDNKKRLAYAIIQFLHDQLRHGGLSSDAQESLEVAIQCLETAFGVTVEDSDLALPQTLPEIFEAAATGK
In the case of B1, the Kd [1] is reported as 3.7 µM, the “stoichiometry N” value [1] is reported as 1 SGTA dimer: UBL monomer and the Kd [2] is reported as 3 µM. For the same binder, the dH [2] was 5900 ± 110, the “stoichiometry N” value [2] was 0.949 ± 0.013 and the “stoichiometry N” value [3] was 2.
